Laboratory results: patent publication US20030109439A1

Target: KGF receptor (mouse) (UniProt P21803)
Assay: cell-based or functional assay

Chain of UniProt P21803 (P21803 22-821): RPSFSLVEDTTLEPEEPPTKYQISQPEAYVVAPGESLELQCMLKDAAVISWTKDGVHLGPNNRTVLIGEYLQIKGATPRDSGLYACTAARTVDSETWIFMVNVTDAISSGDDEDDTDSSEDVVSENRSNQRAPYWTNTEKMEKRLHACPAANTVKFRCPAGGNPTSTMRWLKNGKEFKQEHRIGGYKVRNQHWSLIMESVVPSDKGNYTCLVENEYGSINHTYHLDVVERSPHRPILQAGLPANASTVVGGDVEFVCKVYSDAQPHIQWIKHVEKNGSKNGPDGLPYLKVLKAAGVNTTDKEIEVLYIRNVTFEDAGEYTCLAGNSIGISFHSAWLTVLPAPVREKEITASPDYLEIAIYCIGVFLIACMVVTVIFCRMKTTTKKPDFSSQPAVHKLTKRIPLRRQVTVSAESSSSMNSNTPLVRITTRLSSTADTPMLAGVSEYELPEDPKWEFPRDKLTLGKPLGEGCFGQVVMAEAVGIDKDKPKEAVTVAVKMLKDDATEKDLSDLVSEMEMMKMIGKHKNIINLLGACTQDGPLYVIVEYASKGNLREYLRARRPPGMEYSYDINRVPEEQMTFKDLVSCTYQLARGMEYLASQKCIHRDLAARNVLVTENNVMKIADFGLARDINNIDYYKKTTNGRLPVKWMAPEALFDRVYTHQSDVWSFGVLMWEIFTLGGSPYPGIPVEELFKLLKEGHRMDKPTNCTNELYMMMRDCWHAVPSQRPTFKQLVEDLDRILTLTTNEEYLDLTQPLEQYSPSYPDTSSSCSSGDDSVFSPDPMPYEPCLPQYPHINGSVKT

Substance: acidic FGF (ligand)
- potency as mitogen for Balb/Mk cells (cell proliferation), relative to KGF (fold less than KGF): 10
